Test results published in the RNAGym collection of RNA variant scans (doi:10.1073/pnas.2313332121).
This sample holds only a part of the variants without activity.

B1: TPR 5TU (parent)
chain: GGAUCUUCUCGAUCUAACAAAAAAGACAAAUCUGCCACAAAGCUUGAGAGCAUCUUCGGAUGCAGAGGCGGCAGCCUUCGGUGGCGCGAUAGCGCCAACGUUCUCAACUAUGACACGCAAAACGCGUGCUCCGUUGAAUGGAGUUUAUCAUG

Variants of: B1
Assay: polymerase ribozyme fitness, log enrichment relative to wild type (log ratio); higher = more active; in vitro selection for triplet polymerase activity
In short: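 Mutant libraries of each subunit of a heterodimeric triplet polymerase ribozyme were built by PCR and transcribed. Each library went through one round of in vitro selection in triplicate: annealing with biotinylated primer, partner subunit and triplets, frozen incubation at −7 °C, gel excision of extended constructs, streptavidin-bead capture and RT-PCR. Input and output libraries were Illumina-sequenced; only genotypes with ≥10 input reads and ≥1 read per output were kept. Fitness is log2(genotype enrichment/wild-type enrichment), using inverse-variance-weighted replicate averages.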

Row | Variant | polymerase ribozyme fitness (log ratio)
1 | GGAUCUUCUCGAUCUAACAAAAAAGACAAAUCUGCCACAAAGCUUGAGAGCAUCUUCGGAUGCAGAGGCGGCAGCCUUCGGUGGCGCGAUAGCGUCAAAGUUCUCAACUAUGACACGCAAAACGCGUGCUCCGUUGAAUGGAGUUUAUCAUG | -0.15
2 | GGAUCUUCUCGAUCUAACAAAAAAGACAAAUCUGCCACAAAGCUUGAGAGCAUCUUCGGAUGCAGAGGCGGCAGCCUUCGGUGGCGCGAUAGCGUCAAUGUUCUCAACUAUGACACGCAAAACGCGUGCUCCGUUGAAUGGAGUUUAUCAUG | -1.09
3 | GGAUCUUCUCGAUCUAACAAAAAAGACAAAUCUGCCACAAAGCUUGAGAGCAUCUUCGGAUGCAGAGGCGGCAGCCUUCGGUGGCGCGAUAGCGCAAACGUUCUCAACUAUGACACGCAAACCGCGUGCUCCGUUGAAGGGAGUUUAUCCUG | -3.67
4 | GGAUCUUCUCGAUCUAACAAAAAAGACAAAUCUGCCACAAAGCUUGAGAGCAUCUUCGGAUGCAGAGGCGGCAGCCUUCGGUGGCGCGAUAGCGCAGACGUUCUCAACUAUGACACGCAAAACGCGUGCUCCGUUGAAUGGAAUUUAUCAUG | -0.965
5 | GGAUCUUCUCGAUCUAACAAAAAAGACAAAUCUGCCACAAAGCUUGAGAGCAUCUUCGGAUGCAGAGGCGGCAGCCUUCGGUGGCGCGAUAGCGUCAACGUGCUUAACUAUGACACGCAAAACGCGUGCUCCGUUGAAUGGAGUUUAUCAUG | -2.98
6 | GGAUCUUCUCGAUCUAACAAAAAAGACAAAUCUGCCACAAAGCUUGAGAGCAUCUUCGGAUGCAGAGGCGGCAGCCUUCGGUGGCGCGAUAGCGUCAACGUUCUCAACUAUGACACGCAAAACGCGUGCUCCGUUGAAUGGAGUUUAUAAUG | ≤ -4.2
7 | GGAUCUUCUCGAUCUAACAAAAAAGACAAAUCUGCCACAAAGCUUGAGAGCAUCUUCGGAUGCAGAGGCGGCAGCCUUCGGUGGCGCGAUAGCGCAAACGUUCUCCACUAUGACACGCAAAACGCGUGCUCCGUUGAAUGGAGUUUAUCAUG | -0.591
8 | GGAUCUUCUCGAUCUAACAAAAAAGACAAAUCUGCCACAAAGCUUGAGAGCAUCUUCGGAUGCAGAGGCGGCAGCCUUCGGUGGCGCGAUAGCGUCAACGUUGUCAACUAUGACACGCAAAACGCGUGCUCCGUUGAAUGGAGUUUAUCAUG | -1.69
9 | GGAUCUUCUCGAUCUAACAAAAAAGACAAAUCUGCCACAAAGCUUGAGAGCAUCUUCGGAUGCAGAGGCGGCAGCCUUCGGUGGCGCGAUAGCGUCAACGUUCUCAACUAUGACACGCAAAACGCGUGCGCCGUUGAAUGGAGUUUAUCAUG | -2.55
10 | GGAUCUUCUCGAUCUAACAAAAAAGACAAAUCUGCCACAAAGCUUGAGAGCAUCUUCGGAUGCAGAGGCGGCAGCCUUCGGUGGCGCGAUAGCGUCAACGUUCUCAACUAUGACACGCAAAACCCGUGCUCCGUUGAAUGGAGUUUAUCAUG | -0.723
11 | GGAUCUUCUCGAUCUAACAAAAAAGACAAAUCUGCCACAAAGCUUGAGAGCAUCUUCGGAUGCAGAGGCGGCAGCCUUCGGUGGCGCGAUAGCUCCAACUUUCUCAACUAUGACACGCAAAACGCGUGCUCCGUUGAAUGGAGUUUAUCAUG | -3.85
12 | GGAUCUUCUCGAUCUAACAAAAAAGACAAAUCUGCCACAAAGCUUGAGAGCAUCUUCGGAUGCAGAGGCGGCAGCCUUCGGUGGCGCGAUAGCUCCAACGUUCUCAACUAUGACACGCAAAAGGCGUGCUCCGUUGAAUGAAGUUCAUCAUG | -2.83
13 | GGAUCUUCUCGAUCUAACAAAAAAGACAAAUCUGCCACAAAGCUUGAGAGCAUCUUCGGAUGCAGAGGCGGCAGCCUUCGGUGGCGCGAUAGCUCCAACGUUCUCAACUAUGACAGGCAAAACGCGUGCUCCGUUGAAUGGAGUUUAUCAUG | -0.502
14 | GGAUCUUCUCGAUCUAACAAAAAAGACAAAUCUGCCACAAAGCUUGAGAGCAUCUUCGGAUGCAGAGGCGGCAGCCUUCGGUGGCGCGAUAGCGGCAGCGUUCUCAACUAUGACACGCAAAACGCGUGCUCCGUUGAAUGGAGUUUAUCAUG | -1.57
15 | GGAUCUUCUCGAUCUAACAAAAAAGACAAAUCUGCCACAAAGCUUGAGAGCAUCUUCGGAUGCAGAGGCGGCAGCCUUCGGUGGCGCGAUAGCGUCAACGUUCUCAACUAUGACACGCAAAACGCGUGCUCCGUUGAAGGGAGUUUAACAUG | -3.14
16 | GGAUCUUCUCGAUCUAACAAAAAAGACAAAUCUGCCACAAAGCUUGAGAGCAUCUUCGGAUGCAGAGGCGGCAGCCUUCGGUGGCGCGAUAGCGUCAAAGUUCUCAACUAUGACACUCAAAACGCGUGCUCCGUUGAAUGGAGUUUAACAUG | ≤ -4.2
17 | GGAUCUUCUCGAUCUAACAAAAAAGACAAAUCUGCCACAAAGCUUGAGAGCAUCUUCGGAUGCAGAGGCGGCAGCCUUCGGUGGCGCGAUAGCGUCAACGUUCUCAACUAUGACACGUAAAACGCGUGCUCCGUUGAAUGGAGUUUAUCAUG | -1.09
18 | GGAUCUUCUCGAUCUAACAAAAAAGACAAAUCUGCCACAAAGCUUGAGAGCAUCUUCGGAUGCAGAGGCGGCAGCCUUCGGUGGCGCGAUAGCGCAGACGUUCUCAACUAUGACACGCAAAACGCGUGCUCCGUUGAAUGGAGUUUAUCAUG | -0.635
19 | GGAUCUUCUCGAUCUAACAAAAAAGACAAAUCUGCCACAAAGCUUGAGAGCAUCUUCGGAUGCAGAGGCGGCAGCCUUCGGUGGCGCGAUAGCUCCAACGUUCUCAACUAUGACACGCAAAACGUGUGCUCCGUUGAAUGGAUUUUAUCAUG | -4.16
